According to publication PMC2911679:
Where two headings read alike, the source gives them in different places.

Experiments:
Experiment in all cases: AlphaScreen or HTRF
[1] = molecular target: His6-tagged GFP–SRY-HMG R76P (SRY residues 55–141) (human) (UniProt Q05066)
[2] = molecular target: His6-tagged GFP–SRY-HMG R76P (SRY residues 55–141) (human) (UniProt Q05066); remark: listed apart in the source
[3] = molecular target: His6-tagged GFP–SRY-HMG F67V (SRY residues 55–141) (human) (UniProt Q05066)
[4] = molecular target: His6-tagged GFP–SRY-HMG M64T (SRY residues 55–141) (human) (UniProt Q05066)

In the case of “biotin-labelled calmodulin (CaM) (from UniProt P0DP23 1-149) (natural protein)”, the Kd [1] is reported as 2.05 nM, the Kd [2] is reported as 1.18 nM and the Kd [3] is reported as 1.25 nM. It also gave a Kd [4] of 2.05 nM.
